Experimental data as given in PMC5005036, “PDZD7-MYO7A complex identified in enriched stereocilia membranes” (eLife, 2016).

Biological target: T1, GFP-MYO7A (mouse) (mouse, UniProt P97479 1-2215)
T1 construct: MYO7A (myosin VIIA), mouse, in pEGFP-C1; plasmid obtained from David Corey; source: HEK293, transfected, in RIPA extract; not shown: GFP, N-terminal, kept
Assay: affinity purification with mass spectrometry; HEK293 cells transfected; RIPA extract; 138-1 immunoprecipitates analysed by shotgun mass spectrometry, two technical replicates
Conditions: partners not purified

T1 sequence (P97479 whole entry): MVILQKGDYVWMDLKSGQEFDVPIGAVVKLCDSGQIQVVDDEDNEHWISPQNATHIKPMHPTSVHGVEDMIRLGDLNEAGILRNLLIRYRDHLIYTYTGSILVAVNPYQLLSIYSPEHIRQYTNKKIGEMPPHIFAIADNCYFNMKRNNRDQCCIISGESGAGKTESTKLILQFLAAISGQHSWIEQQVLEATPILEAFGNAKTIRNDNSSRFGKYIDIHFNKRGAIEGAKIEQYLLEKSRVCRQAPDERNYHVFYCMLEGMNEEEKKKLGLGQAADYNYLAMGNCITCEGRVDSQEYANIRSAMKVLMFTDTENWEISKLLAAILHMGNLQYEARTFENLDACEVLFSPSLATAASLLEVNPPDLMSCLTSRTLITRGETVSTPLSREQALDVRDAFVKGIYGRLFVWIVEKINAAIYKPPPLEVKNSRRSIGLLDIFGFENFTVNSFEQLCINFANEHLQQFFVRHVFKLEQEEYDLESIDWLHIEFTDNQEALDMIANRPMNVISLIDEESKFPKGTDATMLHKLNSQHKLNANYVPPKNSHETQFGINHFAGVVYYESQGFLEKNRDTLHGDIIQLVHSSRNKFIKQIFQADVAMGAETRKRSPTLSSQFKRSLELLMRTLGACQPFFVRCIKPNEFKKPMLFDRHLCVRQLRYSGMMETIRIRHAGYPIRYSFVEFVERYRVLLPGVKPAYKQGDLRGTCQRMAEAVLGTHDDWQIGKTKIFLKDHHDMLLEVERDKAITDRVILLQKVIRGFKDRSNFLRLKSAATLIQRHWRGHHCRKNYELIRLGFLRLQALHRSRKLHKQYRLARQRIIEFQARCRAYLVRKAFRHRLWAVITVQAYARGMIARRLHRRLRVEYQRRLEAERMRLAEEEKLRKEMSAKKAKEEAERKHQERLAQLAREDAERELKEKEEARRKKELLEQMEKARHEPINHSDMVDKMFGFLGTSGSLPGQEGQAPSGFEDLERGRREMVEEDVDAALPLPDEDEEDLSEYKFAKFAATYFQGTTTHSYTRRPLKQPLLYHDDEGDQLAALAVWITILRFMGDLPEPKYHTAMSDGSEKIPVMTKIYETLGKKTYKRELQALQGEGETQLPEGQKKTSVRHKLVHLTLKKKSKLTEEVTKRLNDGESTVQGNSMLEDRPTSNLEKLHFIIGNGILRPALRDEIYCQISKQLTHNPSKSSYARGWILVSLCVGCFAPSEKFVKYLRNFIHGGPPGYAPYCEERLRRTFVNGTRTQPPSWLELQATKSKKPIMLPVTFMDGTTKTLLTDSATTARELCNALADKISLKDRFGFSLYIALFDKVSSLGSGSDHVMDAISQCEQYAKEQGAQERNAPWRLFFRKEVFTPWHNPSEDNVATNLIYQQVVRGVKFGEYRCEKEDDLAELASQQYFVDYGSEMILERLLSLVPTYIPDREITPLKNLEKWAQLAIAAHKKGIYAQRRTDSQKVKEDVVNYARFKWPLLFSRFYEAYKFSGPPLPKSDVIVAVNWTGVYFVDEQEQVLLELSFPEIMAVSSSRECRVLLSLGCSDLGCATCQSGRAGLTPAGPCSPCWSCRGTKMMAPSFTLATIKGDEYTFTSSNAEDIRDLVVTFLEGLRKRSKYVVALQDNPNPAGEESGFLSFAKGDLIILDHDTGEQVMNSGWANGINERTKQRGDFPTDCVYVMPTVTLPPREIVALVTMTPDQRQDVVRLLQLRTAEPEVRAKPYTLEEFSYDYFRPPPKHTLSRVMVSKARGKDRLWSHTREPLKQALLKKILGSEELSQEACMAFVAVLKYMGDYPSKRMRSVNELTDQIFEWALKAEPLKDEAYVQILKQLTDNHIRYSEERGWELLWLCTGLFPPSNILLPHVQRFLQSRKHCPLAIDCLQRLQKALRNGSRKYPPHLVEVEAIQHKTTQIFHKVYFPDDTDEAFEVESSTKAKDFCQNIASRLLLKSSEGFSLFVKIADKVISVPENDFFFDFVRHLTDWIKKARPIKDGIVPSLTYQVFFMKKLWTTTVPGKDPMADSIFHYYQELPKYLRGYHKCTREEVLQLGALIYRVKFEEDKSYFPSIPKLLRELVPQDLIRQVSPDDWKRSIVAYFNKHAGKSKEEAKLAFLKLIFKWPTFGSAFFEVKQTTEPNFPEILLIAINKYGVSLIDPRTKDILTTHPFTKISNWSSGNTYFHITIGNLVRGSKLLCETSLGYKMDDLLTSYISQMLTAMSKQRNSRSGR

level in the 138-1 immunoprecipitate relative to MYO7A: ~0.4 x
B1: mCherry-PDZD7 (mouse), in HEK293 (natural protein, UniProt E9Q9W7 1-1021, looked up)
chain: MARGFTVGFDPLGLGELSSGSLSSVSSRGHLGSDSGSTATRYLLRKQQRLLNGPSRGIRASSPMGRVILINSPIEANSDESDIIHAVRVEKSPSGRLGFSVRGGSEHGLGIFVSKVEEGSSAERAGLCVGDKITEVNGLSLESTTMGSAVRLLTSSSCLHMMVRRMGRVPGIKFSKEKTTWVDVVNRRLVVEKCSSTPSDRSSEDGVRRIVHLYTTSDDFCLGFNIRGGKEFGLGIYVSKVDHGGLAEENGIKVGDQVLAANGVRFDDISHSQAVEVLKGQTHIMLTIKETGRYPAYKEMVSEYCWLDRLSNGVLQQLSPASESSSSVSSYASSAPCSSGSLPSDRMDVCLGPEEPTSHGPGWGRADTAMQTEPDLDSRVETWCSVRPTVILRDTAIRSDGPSSTRHLDSALSESPKTALLLALSRPRTPITRSQSHLTLWEEKKQRKKEKSGSSGEKGALQRSKTLMNLFFKGGRQGRPAGDGHREAWTLDSRSPTKVRPRLDLEKAGSVGPVQKFVTWRLRRDRERGRALLSARSGSPSGQAPTVNEQVQAWESRRPLIQDLARRLLTDDEVLAVTRHCSRYVHEGGVEDLVRPLLAILDRPTKLLLLRDIRSVVAPTDLGRFDSMVMPVELEAFEALKSRAVGPSALRPTRQDTPPKRHLITPVPDSRGGFYLLPVNSSEDEDGEIREKLGVLKVSLGASAPHHKGIPPLQDVPVDAFSLRRGACAPPPQPPPVAPRPPRPNWLLTEPLSREDTQQNQSQTPAQSCSRSRSRSRSRSHSRGQGKSPGRRRSPSPAPIATAATANGRYHRPRKARPLLPRLLDGQVAKVGARQGPLENGRIAEEAVGNVSTGALRTITLSKMKQSLGISISGGIESKVQPMVKIEKIFPGGAAFLCGDLQAGFELVAVDGESLEQVTHQRAVDTIRRAYRNKAREPMELVVRVPGPGLLPLASDLRVVKDQSLAPDCPSALGPVDDARILTQLPPPEARQLQQSLSSALKVPQSIPKLSPILKDPHDPS
notes: PDZD7, mouse, cloned into pmCherry-C1; also called PDZD7 fused to mCherry; source: HEK293, transfected, in RIPA extract; not shown: mCherry, N-terminal, kept
